Data published in patent publication US20260263521A1 (AIMED BIO, published 2026).
Where a chain is given by its changes, count along the chain named. Numbers in names are those of the source.

B1: P001006 (IgG) (antibody, V domains shown)
VH: EVQLLESGGGLVQPGGSLRLSCAASGFTFSDYAMSWVRQAPGKGLEWVSGISYGNGNTYYADSVKGRFTISRDNSKNTLYLQMNSLRAEDTAVYYCAKDPWQTAINDFDYWGQGTLVTVSS
VL: QSVLTQPPSASGTPGQRVTISCTGSSSNIGNNSVNWYQQLPGTAPKLLIYTNSHRPSEVPDRFSGSKSGTSASLAISGLRSEDEADYYCGTWDSSLSGYVFGGGTKLTVL
B2: 6A8 (hybridoma clone) (antibody, V domains shown)
VH: QVQLQQPGAELVKPGAPVKLSCKASGYTFTSYWMNWVKQRPGRGLEWIGRIDPSDSETHYNQKFKDKATLTVDKSSSTAYIQLSSLTSEDSAVYYCARSGGWLPGFAYWGQGTLVTVSA
VL: ENVLTQSPAIMSASPGEKVTMTCSASSSLSYMLWYQQKSSTSPKLWIYDTSKLASGVPGRFSGSGSGNSYSLTISSMEAEDVGTYYCFQGSGNPLMYTFGGGTKLEIK
B3: 1F1 (hybridoma clone) (antibody, V domains shown)
VH: B2 VH with L11F, S54A, T58I, L83F
VL: B2 VL with S30I, L33H, S75N, G83A, N93Y
B4: 3G4 (hybridoma clone) (antibody, V domains shown)
VH: B2 VH with Y27F, F29L, S84T
VL: B2 VL with S26R, L29V, L33H, S40R, G83A, N93D
B5: P001018 scFv mutant L3-L94S (scFv)
scFv: QVQLVQSGAEVKKPGASVKVSCKASGYTFTSYVMHWVRQAPGQGLEWMGYINPYNDDTNYNEKFKGRVTMTRDTSTSTVYMELSSLRSEDTAVYYCAREDYYGSRWGYWGQGTLVTVSSGGGGSGGGGSGGGGSDIVLTQSPASLAVSPGQRATITCRASKSVSTSGYSYMHWYQQKPGQPPKLLIYLASNLESGVPARFSGSGSGTDFTLTINPVEANDTANYYCQHSRESLTFGQGTKVEIK
B6: P001018 scFv mutant L3-L95D (scFv)
scFv: B5 scFv with S232L, L233D
B7: P001018 scFv mutant L3-T96R (scFv)
scFv: B5 scFv with S232L, T234R
B8: P001018 scFv mutant L3-R92H (scFv)
scFv: B5 scFv with R230H, S232L
B9: P001018 scFv mutant L3-R92S (scFv)
scFv: B5 scFv with R230S, S232L
B10: 6C3 (hybridoma clone) (antibody, V domains shown)
VH: QVQLQQPGAELVRPGASVKLSCKASAYTFTSYWMNWVKQRPEQGLEWIGRIDPYDSETHYNQKFKDKAILTVDKSSSTAYMQLSSLTSEDSAVYYCARVDGNHLFDYWGQGTTLTVSS
VL: DIKMTQSPSSMYASLGERVTITCKASQDINSYLSWFQQKPGKSPKTLIYRANRLVDGVPSRFSGSGSGQDYSLTISSLEYEDMGIYYCLQYDEFPYTFGGGTKLEIK
B11: 5E9 (hybridoma clone) (antibody, V domains shown)
VH: QVQLQQSGAELARPGASVKLSCKASGYTFTSYWMQWVKQRPGQGLEWIGAIYPGDGDTRYTQKFKGKATLTADKSSSTAYMQLRSLASEDSAVFYCARGGVTTLVPYFFDYWGQGATLTVSS
VL: DVLMTQTPLSLPVSLGDQASISCRSSQSIVHSNGNTYLEWYLQKPGQSPKLLIYKVSNRFSGVPDRFSGSGSGTDFTLKISRVEAEDLGVYYCFQGSHVPPTFGGGTKLEIK

Key:
[1] = molecular target: T1, human CD200R1 expressed on cells (Jurkat-CD200R1, U937-CD200R1, HH cells) (human, UniProt Q8TD46 25-348); experiment: flow cytometry on Jurkat-CD200R1 and HH cells, 500 nM antibody in IgG1 form
T1 construct: whole, on cells; also called HH (CRL-2105); cell surface-expressed CD200R1
T1 sequence (looked up): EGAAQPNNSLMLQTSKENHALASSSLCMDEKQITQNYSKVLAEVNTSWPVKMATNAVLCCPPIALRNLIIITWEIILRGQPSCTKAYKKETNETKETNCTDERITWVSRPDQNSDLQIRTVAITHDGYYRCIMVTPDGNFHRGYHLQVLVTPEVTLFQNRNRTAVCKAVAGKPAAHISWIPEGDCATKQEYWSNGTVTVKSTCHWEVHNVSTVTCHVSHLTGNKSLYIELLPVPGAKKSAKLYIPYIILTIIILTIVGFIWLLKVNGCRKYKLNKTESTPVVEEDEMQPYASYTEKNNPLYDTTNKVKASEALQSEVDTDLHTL
Experimental: The cells were washed by centrifugation at 130 g for 5 minutes. The cells were seeded onto 96-well round-bottom plates (SPL, #34296) at a density of 1×10⁵ cells/well in Flow cytometry staining buffer (Invitrogen, #00-4222-26) or FACS buffer. […] After incubation for 1 hour at 4° C., the cells were treated with Alexa-647 Goat anti-human IgG (H+L) cross-adsorbed secondary antibody (Invitrogen, #A21445) and incubated at 4° C. for an additional 30 minutes. After washing twice with FACS buffer, flow cytometry analysis was performed using a Novocyte Flow cytometer (Agilent).

[2] = molecular target: T2, human CD200RLa (Sino Biological, 11620-H08H) recombinant protein (human, UniProt Q6Q8B3 24-239); experiment: ELISA, plate-bound human CD200RLa (2 ug/mL), antibody 0.0192-300 nM, O.D 450 nm; panel 'recombinant human CD200RLa'
T2 construct: Bought; construct not described
T2 sequence (looked up): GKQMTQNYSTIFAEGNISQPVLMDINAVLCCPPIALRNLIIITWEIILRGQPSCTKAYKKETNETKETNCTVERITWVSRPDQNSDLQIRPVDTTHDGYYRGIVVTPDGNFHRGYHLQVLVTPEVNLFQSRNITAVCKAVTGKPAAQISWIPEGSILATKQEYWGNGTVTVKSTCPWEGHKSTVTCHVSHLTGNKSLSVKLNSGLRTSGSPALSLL
Experimental: 96-well plates were coated with human CD200RLa (Sino Biological, 11620-H08H) and monkey CD200RLa (Sino Biological, 11576-C02H) recombinant proteins at a concentration of 2 μg/mL at 4° C. for 16 hours, and blocked with 3% skim milk for 1 hour. […] Color was developed with a TMB substrate solution (Thermo Scientific, 34029, 1-Step™ Ultra TMB-ELISA Substrate Solution). The color reaction was stopped with stop solution (Invitrogen, SS04, ELISA Stop Solution).

[3] = molecular target: T3, mouse CD200R1 protein (R&D systems, 2554-CD) (mouse, UniProt Q9ES57 26-238, limits assumed); experiment: ELISA, plate-bound mouse CD200R1 (2 ug/mL), IgG 0.0192-300 nM, OD 450 nm; panel 'mouse CD200R1'
T3 construct: Bought; construct not described
T3 sequence (looked up): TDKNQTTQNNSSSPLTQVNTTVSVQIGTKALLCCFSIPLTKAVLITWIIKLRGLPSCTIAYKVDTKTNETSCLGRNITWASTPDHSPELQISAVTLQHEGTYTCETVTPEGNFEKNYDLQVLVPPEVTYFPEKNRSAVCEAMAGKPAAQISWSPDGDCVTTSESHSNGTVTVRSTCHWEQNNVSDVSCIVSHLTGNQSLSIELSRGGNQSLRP
Experimental: 96-well plates were coated with human CD200R1 (R&D systems, 3414-CD) and mouse CD200R1 protein (R&D systems, 2554-CD) at a concentration of 2 μg/mL at 4° C. for 16 hours and then were blocked with 3% skim milk.
Color was developed with a TMB substrate solution (Thermo Scientific, 34029, 1-Step™ TMB-ELISA Ultra Substrate Solution). The color reaction was stopped with stop solution (Invitrogen, SS04, ELISA Stop Solution). The absorbance was measured at an optical density of 450 nm.

[4] = molecular target: T4, human CD200R1 recombinant protein (construct not stated) (human, UniProt Q8TD46 27-266, limits assumed); experiment: hybridoma ELISA on human CD200R1
T4 sequence (looked up): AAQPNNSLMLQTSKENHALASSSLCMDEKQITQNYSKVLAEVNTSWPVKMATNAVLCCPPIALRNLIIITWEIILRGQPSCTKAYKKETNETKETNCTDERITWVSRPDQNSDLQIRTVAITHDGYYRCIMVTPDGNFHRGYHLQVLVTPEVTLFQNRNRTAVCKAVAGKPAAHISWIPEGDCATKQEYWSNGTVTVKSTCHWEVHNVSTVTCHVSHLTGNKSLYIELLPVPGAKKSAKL

[5] = molecular target: T1, human CD200R1 expressed on cells …; experiment: flow cytometry, HH cells; drawn table
[6] = molecular target: T1, human CD200R1 expressed on cells …; experiment: flow cytometry, HH cells; drawn table, row EC50

Row | Binder | MFI normalized to P001017 (chimeric OX108), % [1] [%] | binding result [2] | binding result [3] | ELISA O.D. [4] [O.D.] | Geo mean (%) at 0.05 nM [5] [%] | Geo mean (%) at 0.19 nM [5] [%] | Geo mean (%) at 0.78 nM [5] [%] | Geo mean (%) at 3.125 nM [5] [%] | Geo mean (%) at 12.5 nM [5] [%] | Geo mean (%) at 50 nM [5] [%] | Geo mean (%) at 200 nM [5] [%] | Geo mean (%) at 800 nM [5] [%] | EC50 [6] [nM]
1 | B1 | > 50 | no binding (tested: 300 nM) | no binding (tested: 300 nM) | – | – | – | – | – | – | – | – | – | –
2 | B2 | – | – | – | ≥ 1.5 | – | – | – | – | – | – | – | – | –
3 | B3 | – | – | – | ≥ 1.5 | – | – | – | – | – | – | – | – | –
4 | B4 | – | – | – | ≥ 1.5 | – | – | – | – | – | – | – | – | –
5 | B5 | – | – | – | – | 1.8 | 5.9 | 17.3 | 35.5 | 62 | 76.6 | 98.7 | 110 | 9.52
6 | B6 | – | – | – | – | 2 | 5.6 | 16.4 | 35.6 | 73.8 | 95.3 | 119 | 145 | 13.1
7 | B7 | – | – | – | – | 2.7 | 7.5 | 19.4 | 40.2 | 79.5 | 91.1 | 116 | 123 | 7.26
8 | B8 | – | – | – | – | 3.3 | 8.7 | 19.8 | 43.8 | 84.1 | 100 | – | – | 6.14
9 | B9 | – | – | – | – | 1.7 | 4.5 | 12 | 33.9 | 73.2 | 90.1 | 108 | 116 | 7.76
10 | B10 | – | – | – | ≥ 1.5 | – | – | – | – | – | – | – | – | –
11 | B11 | – | – | – | ≥ 1.5 | – | – | – | – | – | – | – | – | –
